According to patent publication US20130136743A1 (LABORATOIRE FRANCAIS DU FRACTIONNEMENT ET DES …, published 2013):

Target: T1, AMHR-II/Fc fusion protein (human, UniProt Q16671 18-149, limits assumed)
T1 construct: also called AMHR-II recombinant receptor expressed in the form of fusion protein with a region Fc; recombinant target; not shown: Fc region
Experiment: phage-scFv ELISA on AMHRII-Fc; mean of at least four values, standard deviation in parentheses
Protocol: The secondary screening consists of analysing the clones selected at the end of the primary screening individually. For this, the 113 unique mutated clones were transferred to a culture plate (96 well-1.2 ml).
After production of the phage particles, the culture supernatants containing the phages-scFv were used for carrying out an ELISA binding assay. The binding of the mutated clones was evaluated at two dilutions (½ and ¼ of the supernatants containing the scFv-phages). The murine clones (mLFB112) and humanized clones (huLFB112) constructed under the scFv-phages format were used as references on each of the assay plates. Each of the mutated clones was tested at least twice.

T1 sequence (Q16671 18-149 limits assumed): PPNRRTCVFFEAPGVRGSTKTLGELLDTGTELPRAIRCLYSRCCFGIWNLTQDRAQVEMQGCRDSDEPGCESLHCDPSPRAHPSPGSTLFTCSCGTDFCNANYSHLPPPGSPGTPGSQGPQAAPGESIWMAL

B1: 4C_35 (mutated huLFB112 phage-scFv clone) (scFv, part only; not given: scFv linker and phage partner, V domains shown, not shown: another chain or arm of the molecule; large carriers; small tags and cut ends)
VH: QVQLVQSGAEVKKPGASVKVSCKASGYTFTSYHIHWVRQAPGQRPEWMGWIYPGDDSTKYSQKFQGRVTITRDTSASTAYMELSSLRSEDTAVYYCTRGDRFAYWGQGTLVTVSS
VL: DIQMTQSPSTLSASVGDRVTITCRASSSVRYIAWYQQKPGKAPKLLIYSTSSLKSGVPSRFSGSGSGTEFTLTISSLQPDDFATYYCLQWSSYPWTFGGGTKVEIK
In the case of B1, the Ratio AB invention/chimeric 12G4 is reported as 1.9 and the Ratio AB invention/humanized 12G4 is reported as 4.3.

B2: 5B_81 (mutated huLFB112 phage-scFv clone) (scFv, part only; not given: scFv linker and phage partner, V domains shown, not shown: another chain or arm of the molecule; large carriers; small tags and cut ends)
VH: QVQLVQSGAEVKKPGASVKVSCKASGYTFTSYHIHWVRQAPGQRPEWMGWIYPGDDSTKYSQKFQGRVTITRDTSASTAYMELSSLRSEDTAVYYCTRGDRFAYWGQGTLVTVSS
VL: DIQMTQSPSTLSASVGDRVTITCRASSSVRYIAWYQQKPGKAPKLLIYSTSSLESGVPSRFSGSGSGTEFTLTISSLQPDDFATYYCLQWSSYPWTFGGGTKVEIK
B2 showed a Ratio AB invention/chimeric 12G4 of 1.6 and a Ratio AB invention/humanized 12G4 of 3.5.

B3: 3C_23 (mutated huLFB112 phage-scFv clone) (scFv, part only; not given: scFv linker and phage partner, V domains shown, not shown: another chain or arm of the molecule; large carriers; small tags and cut ends)
VH: QVRLVQSGAEVKKPGASVKVSCKASGYTFTSYHIHWVRQAPGQRLEWMGWIYPGDDSTKYSQKFQGRVTITRDTSASTAYMELSSLRSEDTAVYYCTRGDRFAYWGQGTLVTVSS
VL: DIQMTQSPSTLSASVGDRVTITCRASSSVRYIAWYQQKPGKAPKLLTYPTSSLESGVPSRFSGSGSGTEFTLTISSLQPDDFATYYCLQWSSYPWTFGGGTKVEIK
In the case of B3, the Ratio AB invention/chimeric 12G4 is reported as 1.2 and the Ratio AB invention/humanized 12G4 is reported as 2.6.

B4: 4F_196 (mutated huLFB112 phage-scFv clone) (scFv, part only; not given: scFv linker and phage partner, V domains shown, not shown: another chain or arm of the molecule; large carriers; small tags and cut ends)
VH: QVELVQSGAEVKKPGASVKVSCKASGYTFTSYHIHWVRQAPGQRLEWMGWIYPGDDSTKYSRKFQGRVTITRDTSASTAYMELSSLRSDDTAVYYCTRGDRFAYWGQGTLVTVSS
VL: DIQMTQSPSTLSASVGDRVTITCRASSSVRYIAWYQQKPGKAPKLLIYSTSSLESGVPSRFSGSGSGTEFTLTISSLQPDDFATYYCLQWSSYPWTFGGGTKVEIK
In the case of B4, the Ratio AB invention/chimeric 12G4 is reported as 1.5 and the Ratio AB invention/humanized 12G4 is reported as 3.

B5: 5A_28 (mutated huLFB112 phage-scFv clone) (scFv, V domains shown)
VH: QVQLVQSGAEVKKPGASVKVSCKASGYTFTSYHIHWVRQAPGQRLEWMGWIYPGDDSTKYSQKFQGRVTITRDTSASTAYMELSSLRSEDTAVYYCTRGDRFAYWGQGTLVTVSS
VL: DIQMTQSPSTLSASVGDRVTITCRASSSVRYIAWYQQKPGKAPKLLIHPTSSLESGVPSRFSGSGSGTEFTLTISSLQPDDFATYYCLQWSSYPWTFGGGTKVEIK
notes: scFv on M13 phage, tested as culture supernatant; not shown: The 15-residue scFv linker (positions 116-130 of the scFv numbering) and the M13 phage display partner
For B5, the “Ratio AB invention/chimeric 12G4” value was 0.8 and the “Ratio AB invention/humanized 12G4” value was 1.6.

B6: 3D_74 (mutated huLFB112 phage-scFv clone) (scFv, V domains shown)
VH: QVQLVQSGAEVKKPGASVKVSCKASGYTFTSYHIHWVRQAPGQRLEWMGWIYPGDDSTKYSQKFQGRVTITRDTSASTAYMELSSLRSEDTAVYYCTRGDRFAYWGQGTLVTVSS
VL: DIQMTQSPSTLSASVGDRVTITCRASSPVRYIAWYQQKPGKAPKLLIYSTSSLESGVPSRFSGSGSGTEFTLTISSLQPDDFATYYCLQWSSYPWTFGGGTKVEIK
notes: scFv on M13 phage, tested as culture supernatant; not shown: The 15-residue scFv peptide linker (positions 116-130 of the scFv numbering) and the M13 phage display partner
For B6, the “Ratio AB invention/chimeric 12G4” value was 0.8 and the “Ratio AB invention/humanized 12G4” value was 2.

B7: 5B_18 (mutated huLFB112 phage-scFv clone) (scFv, V domains shown)
VH: QVELVQSGTEVKKPGASVKVSCKASGYTFTSYHIHWVRQAPGQRLEWMGWIYPGDDSTKYSQKFQGRVTITRDTSASTAYMELSSLRSEDTAVYYCTRGDRFTYWGQGTLVTVSS
VL: DIQMTQSPSTLSASVGDRVTITCRASSSVRYIAWYQQKPGKAPKLLIYSTSSLESGVPSRFSGSGSGTEFTLTISSLQPDDFATYYCLQWSSYPWTFGGGTKVEIK
notes: scFv on M13 phage, tested as culture supernatant; Q3E: TAG codon suppressed, translated to E in E. coli XL1-blue; not shown: The 15-residue scFv peptide linker (positions 116-130 of the scFv numbering) and the M13 phage display partner
In the case of B7, the “Ratio AB invention/chimeric 12G4” value is reported as 0.9 and the “Ratio AB invention/humanized 12G4” value is reported as 1.8.

B8: 6A_80 (mutated huLFB112 phage-scFv clone) (scFv, V domains shown)
VH: QVQLVQSGAEVKKPGASVKVSCKVSGYTFTSYHIHWVRQAPGQRLEWMGWIYPGDDSTKYSEKFQGRVTITRDTSASTAYMELSSLRSEDTAVYYCTRGDRFAYWGQGTLVTVSS
VL: DIQMTQSPSTLSASVGDRVTITCRASSSVRYIAWYQQKPGKAPKLLIYSTSSLESGVPSRFSGSGSGTEFTLTISSLQPDDFATYYCLQWSSYPWTFGGGTKVEIK
notes: scFv on M13 phage, tested as culture supernatant; Q62E: TAG codon suppressed, translated to E in E. coli XL1-blue; not shown: The 15-residue scFv linker (positions 116-130 of the scFv numbering) and the M13 phage display partner
B8 was tested, and the “Ratio AB invention/chimeric 12G4” value was 1.3 and the “Ratio AB invention/humanized 12G4” value was 1.5.

B9: 6B_76 (mutated huLFB112 phage-scFv clone) (scFv, V domains shown)
VH: QVQLVQSGAEVKKPGASVKVSCKASGYTFTSYHIHWVRQVPGQRLEWMGWIYPGDDSTKYSQKFQGRVTITRDTSASTAYMELSSLRSEDTAVYYCTRGDRFAYWGQGTLVTVSS
VL: DIQMTQSPSTLSASVGDRVTITCRASSSVRYIAWYQQKPGKAPKLLIYPTSSLESGVPSRFSGSGSGTEFTLTISSLQPDDFATYYCLQWSSYPWTFGGGTKVEIK
notes: as for B5
B9 was tested, and the “Ratio AB invention/chimeric 12G4” value was 0.8 and the “Ratio AB invention/humanized 12G4” value was 1.7.

B10: 6B_87 (mutated huLFB112 phage-scFv clone) (scFv, V domains shown)
VH: EVQLVQSGAEVKKPGASVKVSCKVSGYTFTSYHIHWVRQAPGQRLEWMGWIYPGDDSTKYSQKFQGRVTITRDTSASTAYMELSSLRSEDTAVYYCTRGDRFAYWGQGTLVTVSS
VL: DIQMTQSPSTLSASVGDRVTITCRASSSVRYIAWYQQKPGKAPKLLIYSTSSLESGVPSRFSGSGSGTEFTLTISSLQPDDFATYYCLQWSSYPWTFGGGTKVEIK
notes: scFv on M13 phage, tested as culture supernatant; Q1E: TAG codon suppressed, translated to E in E. coli XL1-blue; not shown: The 15-residue scFv peptide linker (positions 116-130 of the scFv numbering) and the M13 phage display partner
For B10, the “Ratio AB invention/chimeric 12G4” value was 1 and the “Ratio AB invention/humanized 12G4” value was 2.1.

B11: 4E_153 (mutated huLFB112 phage-scFv clone) (scFv, V domains shown)
VH: QVQLVQSGAEVKKPGASVKVSCKASGYTFTSYHIHWVRQAPGQRLEWMGWIYPGDNSTKYSQKFQGRVTNTRDTSASTAYMELSSLRSEDTAVYYCTRGDRSAYWGQGTLVTVSS
VL: DIQMTQSPSTLSASVGDRVTITCRASSSVRYIAWYQQKPGKAPKLLIYSTSSLESGVPSRFSGSGSGTEFTLTISSLQPDDFATYYCLQWSSYPWTFGGGTKVEIK
notes: as for B6
For B11, the “Ratio AB invention/chimeric 12G4” value was 1 and the “Ratio AB invention/humanized 12G4” value was 2.

B12: 4D_91 (mutated huLFB112 phage-scFv clone) (scFv, V domains shown)
VH: EVQLVQSGAEAKKPGASVKVSCKASGYTFTSYHIHWVRQAPGQRLEWMGWIYPGDDSTKYSQKFQGRVTITRDTSASTAYMELSSLRSEDTAVYYCTRGDRFAYWGQGTLVTVSS
VL: DIQMTQSPSTLSASVGDRVTITCRASSSVRYIAWYQQKPGKAPKLLIYSTSSLESGVPSRFSGSGSGTEFTLTISSLQPDDFATYYCLQWSSYPWTFGGGTKVEIK
notes: as for B10
With B12 the “Ratio AB invention/chimeric 12G4” value was 0.8 and the “Ratio AB invention/humanized 12G4” value was 1.7.

B13: 6B_14 (mutated huLFB112 phage-scFv clone) (scFv, V domains shown)
VH: QVQLVQSGAEVKKPGASVKVSCKASGYTFTGYHIHWVREAPGQRLEWMGWIYPGDDSTKYSQKFQGRVTITRDTSASTAYMELSSLRSEDTAVYYCTRGDRFAYWGQGTLVTVSS
VL: DIQMTQSPSTLSASVGDRVTITCRASSSVRYIAWYQQKPGKAPKLLIYSTSSLESGVPSRFSGSGSGTEFTLTISSLQPDDFATYYCLQWSSYPWTFGGGTKVEIK
notes: scFv on M13 phage, tested as culture supernatant; Q39E: TAG codon suppressed, translated to E in E. coli XL1-blue; not shown: The 15-residue scFv peptide linker (positions 116-130 of the scFv numbering) and the M13 phage display partner
In the case of B13, the “Ratio AB invention/chimeric 12G4” value is reported as 1.1 and the “Ratio AB invention/humanized 12G4” value is reported as 2.6.

B14: 4F_169 (mutated huLFB112 phage-scFv clone) (scFv, V domains shown)
VH: QVQLVESGAEVKKPGASVKVSCKASGYTFTSYHIHWVRQAPGQRLEWMGWIYPGDDSAKYSQKFQGRVTITRDTSASTAYMELSSLRSEDTAVYYCTRGDRFAYWGQGTLVTVSS
VL: DIQMTQSPSTLSASVGDRVTITCRASSSVRYIAWYQQKPGKAPKLLIYSTSSLESGVPSRFSGSGSGTEFTLTISSLQPDDFATYYCLQWSSYPWTFGGGTKVEIK
notes: scFv on M13 phage, tested as culture supernatant; Q6E: TAG codon suppressed, translated to E in E. coli XL1-blue; not shown: The 15-residue scFv peptide linker (positions 116-130 of the scFv numbering) and the M13 phage display partner
For B14, the “Ratio AB invention/chimeric 12G4” value was 1 and the “Ratio AB invention/humanized 12G4” value was 2.

B15: 5A_66 (mutated huLFB112 phage-scFv clone) (scFv, V domains shown)
VH: QVQLVQSGAEVKKPGASVKVSCKASGYTFTSYHIHWVRQAPGQRLEWMGWIYPGDDSTKYSQKFQGRMTITRDTSASTAYMELSSLRSEDTAVYYCTRGDRFAYWGQGTLVTVSS
VL: DIQMTQSPSTLSASVGDRVTITCRASSSVRYIAWYQQKPGKAPKLLIYSTSSLESGVPSRFSGSGSGTEFTLTISSLQPDDSATYYCLQWSSYPWTFGGGTKVEIK
notes: as for B6
With B15 the “Ratio AB invention/chimeric 12G4” value was 1.1 and the “Ratio AB invention/humanized 12G4” value was 2.2.
